Results taken from the RNAGym collection of RNA variant scans (doi:10.7554/elife.90254).

B1: LINE1-mini (parent)
chain: GGCAGAGCUCAACACAGCGUGGCAAAGUGGCUGUGGCUAGACUGCC

Variants of: B1
Assay: self-cleavage, relative activity (ratio to wild type); higher = more cleavage; in vitro, sequencing; the parent is a self-cleaving ribozyme

| Variant | self-cleavage |
| --- | --- |
| U9G U28A | 0.11 |
| U9G U28C | 0.04 |
| U9G U28G | 0.06 |
| C10A A25G | 0.04 |
| C10A A25U | 0.1 |
| C10A A25C | 0.05 |
| C10A U32C | 0.03 |
| C10A U32A | 0.02 |
| C10A U32G | 0.03 |
| U9C G35A | 0.06 |
| U9C G35C | 0.04 |
| U9C G35U | 0.03 |
| C10A A16C | 0.04 |
| C10A A16U | 0.05 |
| C10A A16G | 0.07 |
| U9C A12U | 0.03 |
| U9C A12C | 0.04 |
| U9C A12G | 0.04 |
| C10A C45A | 0.04 |
| C10A C45G | 0.03 |
| C10A C45U | 0.07 |
| C10A C37U | 0.01 |
| C10A C37G | 0.01 |
| C10A C37A | 0.01 |

| Variant | self-cleavage |
| --- | --- |
| U9G C18G | 0.04 |
| U9G C18A | 0.07 |
| U9G C18U | 0.09 |
| U9G | 0.15 |
| C10A G35U | 0.03 |
| C10A G35C | 0.02 |
| C10A G35A | 0.04 |
| C10A U38A | 0.15 |
| C10A U38C | 0.16 |
| C10A U38G | 0.05 |
| U9C G33C | 0.03 |
| U9C G33U | 0.03 |
| U9C G33A | 0.06 |
| C10A C18A | 0.07 |
| C10A C18U | 0.07 |
| C10A C18G | 0.04 |
| U9G G29A | 0.08 |
| U9G G29C | 0.05 |
| U9G G29U | 0.07 |
| U9C C37U | 0.04 |
| U9C C37A | 0.02 |
| U9C C37G | 0.01 |
| C10A U43G | 0 |
| C10A U43C | 0.03 |

| Variant | self-cleavage |
| --- | --- |
| C10A U43A | 0.01 |
| U9C U38A | 0.03 |
| U9C U38G | 0.04 |
| U9C U38C | 0.07 |
| U9G U20A | 0.07 |
| U9G U20G | 0.06 |
| U9G U20C | 0.05 |
| U9C C46U | 0.03 |
| U9C C46G | 0.03 |
| U9C C46A | 0.03 |
| U9G G36A | 0.61 |
| U9G G36C | 0.04 |
| U9G G36U | 0.12 |
| U9G G21U | 0.06 |
| U9G G21C | 0.08 |
| U9G G21A | 0.13 |
| U9G A41U | 0.14 |
| U9G A41C | 0.04 |
| U9G A41G | 0.08 |
| U9C U32A | 0.02 |
| U9C U32C | 0.04 |
| U9C U32G | 0.03 |
| U9G C15G | 0.43 |
| U9G C15A | 0.1 |

| Variant | self-cleavage |
| --- | --- |
| U9G C15U | 0.17 |
| U9C G29A | 0.02 |
| U9C G29U | 0.03 |
| U9C G29C | 0.02 |
| U9G A26U | 0.15 |
| U9G A26G | 0.04 |
| U9G A26C | 0.21 |
| U9C A14C | 0.02 |
| U9C A14G | 0.03 |
| U9C A14U | 0.07 |
| C10A G19U | 0.06 |
| C10A G19A | 0.07 |
| C10A G19C | 0.05 |
| U9C G44U | 0.02 |
| U9C G44C | 0.02 |
| U9C G44A | 0.04 |
| C10A U20C | 0.06 |
| C10A U20G | 0.03 |
| C10A U20A | 0.05 |
| U9C C31U | 0.03 |
| U9C C31G | 0.02 |
| U9C C31A | 0.02 |
| C10A U28G | 0.06 |
| C10A U28C | 0.07 |

| Variant | self-cleavage |
| --- | --- |
| C10A U28A | 0.04 |
| U9C U34A | 0.04 |
| U9C U34C | 0.04 |
| U9C U34G | 0.03 |
| U9C C15A | 0.03 |
| U9C C15G | 0.04 |
| U9C C15U | 0.04 |
| U9G A24G | 0.14 |
| U9G A24U | 0.18 |
| U9G A24C | 0.07 |
| U9G C37U | 0.15 |
| U9G C37G | 0.05 |
| U9G C37A | 0.22 |
| C10A G36U | 0.04 |
| C10A G36C | 0.02 |
| C10A G36A | 0.02 |
| U9G G30U | 0.1 |
| U9G G30C | 0.06 |
| U9G G30A | 0.09 |
| U9C G17A | 0.02 |
| U9C G17C | 0.04 |
| U9C G17U | 0.04 |
| C10G | 0.11 |
| C10A | 0.07 |

| Variant | self-cleavage |
| --- | --- |
| C10A C23U | 0.06 |
| C10A C23G | 0.07 |
| C10A C23A | 0.06 |
| U9G C23A | 0.11 |
| U9G C23U | 0.07 |
| U9G C23G | 0.15 |
| C10A G30U | 0.09 |
| C10A G30C | 0.08 |
| C10A G30A | 0.1 |
| U9C C18U | 0.01 |
| U9C C18A | 0.03 |
| U9C C18G | 0.03 |
| C10A C13G | 0.03 |
| C10A C13U | 0.04 |
| C10A C13A | 0.03 |
| U9G A39C | 0.05 |
| U9G A39G | 0.08 |
| U9G A14G | 0.12 |
| U9G A14U | 0.06 |
| U9G A14C | 0.2 |
| U9C C42A | 0.03 |
| U9C C42U | 0.04 |
| U9C C42G | 0.03 |
| U9C G22C | 0.03 |

| Variant | self-cleavage |
| --- | --- |
| U9C G22A | 0.04 |
| U9C G22U | 0.02 |
| C10A G44U | 0.03 |
| C10A G44A | 0.07 |
| C10A G44C | 0.07 |
| C10A A26U | 0.06 |
| C10A A26G | 0.12 |
| C10A A26C | 0.04 |
| U9G G22C | 0.1 |
| U9G G22U | 0.19 |
| U9G G22A | 0.21 |
| C10A G22A | 0.05 |
| C10A G22U | 0.07 |
| C10A G22C | 0.03 |
| C10A A11C | 0.02 |
| C10A A11G | 0.03 |
| C10A A11U | 0.03 |
| U9C C45G | 0.02 |
| U9C C45A | 0.05 |
| U9C C45U | 0.03 |
| C10A A14G | 0.06 |
| C10A A14C | 0.02 |
| C10A A14U | 0.05 |
